Test results published in patent US20220153873A1 (ICAHN SCHOOL OF MEDICINE AT MOUNT SINAI, published 2022).
Several values for one entry are separate records, joined by “and”; a condition that tells them apart may be missing. Equal entries are not always repeated.

Legend:
[1] = biological target: recombinant neuraminidase (rNA) of B/Wisconsin/1/10 (influenza B virus B/Wisconsin/1/10)
[2] = biological target: recombinant neuraminidase (rNA) of B/Malaysia/2506/04 (influenza B virus B/Malaysia/2506/04)

B1: HC0LC0 (antibody, V domains shown)
VH: QVHLQQSGPEVARPGASVKLSCKASGYTFTDYYLNWVKQRPRQGLEWIGQIHPGSTNTYYNEKFKGKATLTADKSSSTAYMQLSSLTSEDSAVYFCARSLGDGYYVYAMDYWGQGTAVTVSS
VL: DIVMTQSQKFMSTSVGDRVSVTCKASQNVVTNVVWYQQKPGQSPKPLIYSASYRYSGVPDRFTGSGSGTDFTLTISNVQSEDLAEYCCQQYHSYPFTFGSGTKLEVKR
For B1, the Early Stability X=902 [1] was 0.32 nm and 0.3 nm and 0.33 nm and the % Dissociation [2] was 0.52% and 0%.
